From the supplement of paper PMC11246515
± gives the standard deviation of the averaged measurements.

Assay: total protein half-life in vivo (active degradation + dilution); higher = more stable protein
[1] = E. coli NCM3722 delta-clpP delta-lon delta-hslV, growth: N-lim chemostat, doubling time 6 h
[2] = E. coli NCM3722 delta-clpP, growth: N-lim chemostat, doubling time 6 h
[3] = E. coli NCM3722 delta-lon, growth: N-lim chemostat, doubling time 6 h
[4] = E. coli NCM3722 delta-smpB, growth: N-lim chemostat, doubling time 6 h
[5] = wild type E. coli NCM3722, growth: C-lim chemostat, doubling time 6 h
[6] = wild type E. coli NCM3722, growth: C-lim chemostat, doubling time 12 h
[7] = wild type E. coli NCM3722, growth: N-lim chemostat, doubling time 6 h
[8] = wild type E. coli NCM3722, growth: N-lim chemostat, doubling time 12 h
[9] = wild type E. coli NCM3722, growth: P-lim chemostat, doubling time 6 h
[10] = wild type E. coli NCM3722, growth: P-lim chemostat, doubling time 12 h
[11] = E. coli NCM3722 delta-hslV, growth: N-lim chemostat, doubling time 6 h
[12] = wild type E. coli NCM3722, growth: C-lim chemostat, doubling time 3 h

Row | Sequence | total protein half-life in vivo [1] [h] | total protein half-life in vivo [2] [h] | total protein half-life in vivo [3] [h] | total protein half-life in vivo [4] [h] | total protein half-life in vivo [5] [h] | total protein half-life in vivo [6] [h] | total protein half-life in vivo [7] [h] | total protein half-life in vivo [8] [h] | total protein half-life in vivo [9] [h] | total protein half-life in vivo [10] [h] | total protein half-life in vivo [11] [h] | total protein half-life in vivo [12] [h]
1 | MKYRIALAVSLFALSAGSYATTLCQEKEQNILKEISYAEKHQNQNRIDGLNKALSEVRANCSDSQLRADHQKKIAKQKDEVAERQQDLAEAKQKGDADKIAKRERKLAEAQEELKKLEARDY | 3.72 ± 0.12 | 3.7 ± 0.11 | 5.2 ± 0.22 | 4.66 ± 0.41 | 5.88 | 7.58 ± 0.055 | 5.07 ± 1.1 | 9.61 ± 1.1 | 4.12 | 10.6 | – | –
2 | MKKWAVIISAVGLAFAVSGCSSDYVMATKDGRMILTDGKPEIDDDTGLVSYHDQQGNAMQINRDDVSQIIER | 4.61 ± 0.25 | 5.4 | 6.65 ± 0.55 | 3.25 ± 1.1 | 4.63 ± 0.37 | 7.88 ± 0.34 | 4.76 ± 0.35 | 8.92 ± 2.6 | 3.68 ± 0.91 | – | 4.24 ± 0.17 | 2.24 ± 0.32
3 | MTTRLTRWLTTLDNFEAKMAQLPAVRRYGRLTRATGLVLEATGLQLPLGATCVIERQNGSETHEVESEVVGFNGQRLFLMPLEEVEGVLPGARVYAKNISAEGLQSGKQLPLGPALLGRVLDGSGKPLDGLPSPDTTETGALITPPFNPLQRTPIEHVLDTGVRPINALLTVGRGQRMGLFAGSGVGKSVLLGMMARYTRADVIVVGLIGERGREVKDFIENILGAEGRARSVVIAAPADVSPLLRMQGAAYATRIAEDFRDRGQHVLLIMDSLTRYAMAQREIALAIGEPPATKGYPPSVFAKLPALVERAGNGISGGGSITAFYTVLTEGDDQQDPIADSARAILDGHIVLSRRLAEAGHYPAIDIEASISRAMTALISEQHYARVRTFKQLLSSFQRNRDLVSVGAYAKGSDPMLDKAIALWPQLEGYLQQGIFERADWEASLQGLERIFPTVS | 3.91 | – | – | – | 3.72 | 4.73 ± 0.2 | – | – | – | – | – | 2.04 ± 0.092
4 | MQKAQRIIKTYRRNRMIVCTICALVTLASTLSVRFISQRNLNQQRVVQFANHAVEELDKVLLPLQAGSEVLLPLIGLPCSVAHLPLRKQAAKLQTVRSIGLVQDGTLYCSSIFGYRNVPVVDILAELPAPQPLLRLTIDRALIKGSPVLIQWTPAAGSSNAGVMEMINIDLLTAMLLEPQLPQISSASLTVDKRHLLYGNGLVDSLPQPEDNENYQVSSQRFPFTINVNGPGATALAWHYLPTQLPLAVLLSLLVGYIAWLATAYRMSFSREINLGLAQHEFELFCQPLLNARSQQCIGVEILLRWNNPRQGWISPDVFIPIAEEHHLIVPLTRYVMAETIRQRHVFPMSSQFHVGINVAPSHFRRGVLIKDLNQYWFSAHPIQQLILEITERDALLDVDYRIARELHRKNVKLAIDDFGTGNSSFSWLETLRPDVLKIDKSFTAAIGSDAVNSTVTDIIIALGQRLNIELVAEGVETQEQAKYLRRHGVHILQGYLYAQPMPLRDFPKWLAGSQPPPARHNGHITPIMPLR | 4.94 | 2.57 | – | – | – | – | – | – | – | – | – | –
5 | MFQQQKDWETRENAFAAFTMGPLTDFWRQRDEAEFTGVDDIPVRFVRFRAQHHDRVVVICPGRIESYVKYAELAYDLFHLGFDVLIIDHRGQGRSGRLLADPHLGHVNRFNDYVDDLAAFWQQEVQPGPWRKRYILAHSMGGAISTLFLQRHPGVCDAIALTAPMFGIVIRMPSFMARQILNWAEAHPRFRDGYAIGTGRWRALPFAINVLTHSRQRYRRNLRFYADDPTIRVGGPTYHWVRESILAGEQVLAGAGDDATPTLLLQAEEERVVDNRMHDRFCELRTAAGHPVEGGRPLVIKGAYHEILFEKDAMRSVALHAIVDFFNRHNSPSGNRSTEV | 5.43 ± 1.2 | > 8 | 4.93 ± 0.22 | 4.57 ± 0.31 | 6.52 ± 0.38 | 11.3 ± 1.8 | 4.42 ± 0.28 | 8.56 ± 0.72 | 6.17 ± 0.69 | 10.8 ± 0.91 | 4.87 ± 0.73 | 3.13 ± 0.43
6 | MDAKQRIARRVAQELRDGDIVNLGIGLPTMVANYLPEGIHITLQSENGFLGLGPVTTAHPDLVNAGGQPCGVLPGAAMFDSAMSFALIRGGHIDACVLGGLQVDEEANLANWVVPGKMVPGMGGAMDLVTGSRKVIIAMEHCAKDGSAKILRRCTMPLTAQHAVHMLVTELAVFRFIDGKMWLTEIADGCDLATVRAKTEARFEVAADLNTQRGDL | – | – | 0.206 | – | – | – | 1.83 | – | – | – | – | –
7 | MTDNTYQPAKVWTWDKSAGGAFANINRPVSGPTHEKTLPVGKHPLQLYSLGTPNGQKVTIMLEELLALGVTGAEYDAWLIRIGDGDQFSSGFVEVNPNSKIPALRDHTHNPPIRVFESGSILLYLAEKFGYFLPQDLAKRTETMNWLFWLQGAAPFLGGGFGHFYHYAPVKIEYAINRFTMEAKRLLDVLDKQLAQHKFVAGDEYTIADMAIWPWFGNVVLGGVYDAAEFLDAGSYKHVQRWAKEVGERPAVKRGRIVNRTNGPLNEQLHERHDASDFETNTEDKRQG | 5.11 ± 0.38 | 5.1 ± 0.095 | 5.02 ± 0.099 | 4.78 ± 0.57 | 5.63 ± 0.16 | 9.78 ± 2.2 | 5.31 ± 0.2 | 9.72 ± 3.6 | 5.6 ± 0.21 | 11.8 ± 0.8 | 4.77 ± 0.093 | 3.18 ± 0.21
